The values that follow come from patent publication US20160130336A1.

For this assay, the target named is mVEGF (mouse (from the prefix m only; not spelled out in the filing)) (UniProt Q00731). The assay can be described thus: BIAcore (SPR), column mVEGF. On the technique in general: In SPR one partner is held on a chip, and binding of the other changes the refractive index at the surface.
mVEGF (mouse (from the prefix m only; not spelled out in the filing)), sequence (Q00731 other isoform, or with tags, fused parts or gaps limits assumed): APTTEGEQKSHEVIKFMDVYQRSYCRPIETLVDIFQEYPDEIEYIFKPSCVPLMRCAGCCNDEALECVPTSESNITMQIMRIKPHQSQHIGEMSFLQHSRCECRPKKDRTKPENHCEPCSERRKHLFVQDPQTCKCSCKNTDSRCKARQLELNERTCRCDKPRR

As to Avastin® (bevacizumab) (antibody), the Kd (usually a measure of binding affinity in units of concentration) was determined as 6.88 nM.
